Experimental data: US20250186594A1

Experiments:
[1] = target: Native IL-18 wild-type (SEQ ID NO: 1, native sequence) (human) (UniProt Q14116)
[2] = target: IL-18 variant SEQ ID NO: 57 (E6K, C38S, K53A) (human) (UniProt Q14116)
[3] = target: Native IL-18 wild-type (SEQ ID NO: 1, native sequence) (human) (UniProt Q14116); remark: listed apart in the source
[4] = target: IL-18 variant SEQ ID NO: 28 (E6K, C38A, K53A, T63A, C76A, C127A) (human) (UniProt Q14116); experiment: cell-based or functional assay
[5] = target: IL-18 variant SEQ ID NO: 5 (E6K, V11I, C38A, K53A, T63A, C68A, C76A, M86C, C127A) (human) (UniProt Q14116); experiment: cell-based or functional assay
[6] = target: IL-18 variant SEQ ID NO: 204 (V11I, C38A, K53A, C76A, C127A) (human) (UniProt Q14116); experiment: cell-based or functional assay
[7] = target: IL-18 variant SEQ ID NO: 218 (V11I, C38A, K53A, C76A, C127A, D132A) (human) (UniProt Q14116); experiment: cell-based or functional assay
[8] = target: IL-18 variant SEQ ID NO: 212 (V11I, D35A, C38A, K53A, C76A, C127A) (human) (UniProt Q14116); experiment: cell-based or functional assay
[9] = target: IL-18 variant SEQ ID NO: 6 with 30 kDa PEG (E6K, V11I, C38A, K53A, T63A, C68A, C76A, C127A, D98C-30kPEG) (human) (UniProt Q14116); experiment: cell-based or functional assay
[10] = target: IL-18 variant SEQ ID NO: 61 (E6K, C38A, K53A, C76A) (human) (UniProt Q14116); experiment: cell-based or functional assay
[11] = target: IL-18 variant SEQ ID NO: 228 (V11I, C38A, C76A, S105I, C127A) (human) (UniProt Q14116); experiment: cell-based or functional assay
[12] = target: IL-18 variant SEQ ID NO: 30 with 30 kDa PEG (E6K, V11I, C38A, K53A, T63A, C76A, C127A, C68-30kPEG) (human) (UniProt Q14116); experiment: cell-based or functional assay
[13] = target: IL-18 variant SEQ ID NO: 5 with 30 kDa PEG (E6K, V11I, C38A, K53A, T63A, C68A, C76A, C127A, M86C-30kPEG) (human) (UniProt Q14116); experiment: cell-based or functional assay
[14] = target: IL-18 variant SEQ ID NO: 211 (V11I, T34A, C38A, K53A, C76A, C127A) (human) (UniProt Q14116); experiment: cell-based or functional assay
[15] = target: IL-18 variant SEQ ID NO: 226 (V11I, C38A, S55R, C76A, C127A) (human) (UniProt Q14116); experiment: cell-based or functional assay
[16] = target: IL-18 variant SEQ ID NO: 59 with 30 kDa PEG (E6K, C38A, K53A, C68-30kDPEG) (human) (UniProt Q14116); experiment: cell-based or functional assay
[17] = target: IL-18 variant SEQ ID NO: 229 (V11I, C38A, C76A, S105K, C127A) (human) (UniProt Q14116); experiment: cell-based or functional assay
[18] = target: IL-18 variant SEQ ID NO: 59 with 10 kDa PEG (E6K, C38A, K53A, C68-10kPEG) (human) (UniProt Q14116); experiment: cell-based or functional assay
[19] = target: IL-18 variant SEQ ID NO: 57 with 30 kDa PEG (E6K, C38S, K53A, C68-30kDPEG) (human) (UniProt Q14116); experiment: cell-based or functional assay
[20] = target: IL-18 variant SEQ ID NO: 11 (E6K, V11I, C38A, K53A, C76A, C127A) (human) (UniProt Q14116); experiment: cell-based or functional assay
[21] = target: IL-18 variant SEQ ID NO: 224 (V11I, C38A, C76A, Q103K, C127A) (human) (UniProt Q14116); experiment: cell-based or functional assay
[22] = target: IL-18 variant SEQ ID NO: 221 (V11I, C38A, K53A, C76A, D110A, C127A) (human) (UniProt Q14116); experiment: cell-based or functional assay
[23] = target: IL-18 variant SEQ ID NO: 220 (V11I, C38A, K53A, C76A, H109A, C127A) (human) (UniProt Q14116); experiment: cell-based or functional assay
[24] = target: IL-18 variant SEQ ID NO: 216 (V11I, C38A, D40A, K53A, C76A, C127A) (human) (UniProt Q14116); experiment: cell-based or functional assay
[25] = target: IL-18 variant SEQ ID NO: 225 (V11I, C38A, S55H, C76A, C127A) (human) (UniProt Q14116); experiment: cell-based or functional assay
[26] = target: IL-18 variant SEQ ID NO: 60 with 30 kDa PEG (E6K, C38Q, K53A, C68-30kPEG) (human) (UniProt Q14116); experiment: cell-based or functional assay
[27] = target: IL-18 variant SEQ ID NO: 217 (V11I, C38A, N41A, K53A, C76A, C127A) (human) (UniProt Q14116); experiment: cell-based or functional assay
[28] = target: IL-18 variant SEQ ID NO: 28 with 30 kDa PEG (E6K, C38A, K53A, T63A, C76A, C127A, C68-30kPEG) (human) (UniProt Q14116); experiment: cell-based or functional assay
[29] = target: IL-18 variant SEQ ID NO: 30 with 20 kDa PEG (E6K, V11I, C38A, K53A, T63A, C76A, C127A, C68-20kPEG) (human) (UniProt Q14116); experiment: cell-based or functional assay
Sequence of IL-18 variant SEQ ID NO: 30 with 20 kDa PEG (E6K, V11I, C38A, K53A, T63A, C76A, C127A, C68-20kPEG) (human) (Q14116 other isoform, or with tags, fused parts or gaps with the stated changes): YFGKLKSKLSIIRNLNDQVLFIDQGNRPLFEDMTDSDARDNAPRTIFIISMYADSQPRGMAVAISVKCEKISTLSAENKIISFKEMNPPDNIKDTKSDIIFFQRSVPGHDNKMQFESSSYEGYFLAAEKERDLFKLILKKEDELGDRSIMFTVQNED

Sequence of Native IL-18 wild-type (SEQ ID NO: 1, native sequence) (human) (Q14116 37-193): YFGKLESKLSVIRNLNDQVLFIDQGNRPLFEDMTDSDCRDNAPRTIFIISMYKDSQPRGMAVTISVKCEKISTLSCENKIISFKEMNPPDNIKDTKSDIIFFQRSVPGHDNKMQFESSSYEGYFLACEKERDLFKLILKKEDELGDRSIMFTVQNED
Sequence of IL-18 variant SEQ ID NO: 225 (V11I, C38A, S55H, C76A, C127A) (human) (Q14116 37-193 V47I/C74A/S91H/C112A/C163A): as the sequence (Q14116 37-193) above, with V11I, C38A, S55H, C76A, C127A counted along it
Sequence of IL-18 variant SEQ ID NO: 226 (V11I, C38A, S55R, C76A, C127A) (human) (Q14116 37-193 V47I/C74A/S91R/C112A/C163A): as the sequence (Q14116 37-193) above, with V11I, C38A, S55R, C76A, C127A counted along it
Sequence of IL-18 variant SEQ ID NO: 221 (V11I, C38A, K53A, C76A, D110A, C127A) (human) (Q14116 37-193 V47I/C74A/K89A/C112A/D146A/C163A): as the sequence (Q14116 37-193) above, with V11I, C38A, K53A, C76A, D110A, C127A counted along it
Sequence of IL-18 variant SEQ ID NO: 211 (V11I, T34A, C38A, K53A, C76A, C127A) (human) (Q14116 37-193 V47I/T70A/C74A/K89A/C112A/C163A): as the sequence (Q14116 37-193) above, with V11I, T34A, C38A, K53A, C76A, C127A counted along it
Sequence of IL-18 variant SEQ ID NO: 229 (V11I, C38A, C76A, S105K, C127A) (human) (Q14116 37-193 V47I/C74A/C112A/S141K/C163A): as the sequence (Q14116 37-193) above, with V11I, C38A, C76A, S105K, C127A counted along it
Sequence of IL-18 variant SEQ ID NO: 218 (V11I, C38A, K53A, C76A, C127A, D132A) (human) (Q14116 37-193 V47I/C74A/K89A/C112A/C163A/D168A): as the sequence (Q14116 37-193) above, with V11I, C38A, K53A, C76A, C127A, D132A counted along it
Sequence of IL-18 variant SEQ ID NO: 57 with 30 kDa PEG (E6K, C38S, K53A, C68-30kDPEG) (human) (Q14116 other isoform, or with tags, fused parts or gaps C38S K53A C38S K53A): as the sequence (Q14116 37-193) above, with E6K, C38S, K53A counted along it
Sequence of IL-18 variant SEQ ID NO: 57 (E6K, C38S, K53A) (human) (Q14116 other isoform, or with tags, fused parts or gaps C38S K53A C38S K53A): as the sequence (Q14116 37-193) above, with E6K, C38S, K53A counted along it
Sequence of IL-18 variant SEQ ID NO: 28 with 30 kDa PEG (E6K, C38A, K53A, T63A, C76A, C127A, C68-30kPEG) (human) (Q14116 other isoform, or with tags, fused parts or gaps C38A K53A T63A C76A C127A C38A K53A T63A C76A C127A): as the sequence (Q14116 37-193) above, with E6K, C38A, K53A, T63A, C76A, C127A counted along it
Sequence of IL-18 variant SEQ ID NO: 28 (E6K, C38A, K53A, T63A, C76A, C127A) (human) (Q14116 other isoform, or with tags, fused parts or gaps C38A K53A T63A C76A C127A C38A K53A T63A C76A C127A): as the sequence (Q14116 37-193) above, with E6K, C38A, K53A, T63A, C76A, C127A counted along it
Sequence of IL-18 variant SEQ ID NO: 61 (E6K, C38A, K53A, C76A) (human) (Q14116 other isoform, or with tags, fused parts or gaps C38A K53A C76A C38A K53A C76A): as the sequence (Q14116 37-193) above, with E6K, C38A, K53A, C76A counted along it
Sequence of IL-18 variant SEQ ID NO: 30 with 30 kDa PEG (E6K, V11I, C38A, K53A, T63A, C76A, C127A, C68-30kPEG) (human) (Q14116 other isoform, or with tags, fused parts or gaps with the stated changes): as the sequence (Q14116 37-193) above, with E6K, V11I, C38A, K53A, T63A, C76A, C127A counted along it
Sequence of IL-18 variant SEQ ID NO: 212 (V11I, D35A, C38A, K53A, C76A, C127A) (human) (Q14116 37-193 V47I/D71A/C74A/K89A/C112A/C163A): as the sequence (Q14116 37-193) above, with V11I, D35A, C38A, K53A, C76A, C127A counted along it
Sequence of IL-18 variant SEQ ID NO: 220 (V11I, C38A, K53A, C76A, H109A, C127A) (human) (Q14116 37-193 V47I/C74A/K89A/C112A/H145A/C163A): as the sequence (Q14116 37-193) above, with V11I, C38A, K53A, C76A, H109A, C127A counted along it
Sequence of IL-18 variant SEQ ID NO: 224 (V11I, C38A, C76A, Q103K, C127A) (human) (Q14116 37-193 V47I/C74A/C112A/Q139K/C163A): as the sequence (Q14116 37-193) above, with V11I, C38A, C76A, Q103K, C127A counted along it
Sequence of IL-18 variant SEQ ID NO: 228 (V11I, C38A, C76A, S105I, C127A) (human) (Q14116 37-193 V47I/C74A/C112A/S141I/C163A): as the sequence (Q14116 37-193) above, with V11I, C38A, C76A, S105I, C127A counted along it
Sequence of IL-18 variant SEQ ID NO: 11 (E6K, V11I, C38A, K53A, C76A, C127A) (human) (Q14116 other isoform, or with tags, fused parts or gaps V11I C38A K53A C76A C127A V11I C38A K53A C76A C127A): as the sequence (Q14116 37-193) above, with E6K, V11I, C38A, K53A, C76A, C127A counted along it
Sequence of IL-18 variant SEQ ID NO: 60 with 30 kDa PEG (E6K, C38Q, K53A, C68-30kPEG) (human) (Q14116 other isoform, or with tags, fused parts or gaps C38Q K53A C38Q K53A): as the sequence (Q14116 37-193) above, with E6K, C38Q, K53A counted along it
Sequence of IL-18 variant SEQ ID NO: 216 (V11I, C38A, D40A, K53A, C76A, C127A) (human) (Q14116 37-193 V47I/C74A/D76A/K89A/C112A/C163A): as the sequence (Q14116 37-193) above, with V11I, C38A, D40A, K53A, C76A, C127A counted along it
Sequence of IL-18 variant SEQ ID NO: 204 (V11I, C38A, K53A, C76A, C127A) (human) (Q14116 37-193 V47I/C74A/K89A/C112A/C163A): as the sequence (Q14116 37-193) above, with V11I, C38A, K53A, C76A, C127A counted along it
Sequence of IL-18 variant SEQ ID NO: 59 with 10 kDa PEG (E6K, C38A, K53A, C68-10kPEG) (human) (Q14116 other isoform, or with tags, fused parts or gaps C38A K53A C38A K53A): as the sequence (Q14116 37-193) above, with E6K, C38A, K53A counted along it
Sequence of IL-18 variant SEQ ID NO: 59 with 30 kDa PEG (E6K, C38A, K53A, C68-30kDPEG) (human) (Q14116 other isoform, or with tags, fused parts or gaps C38A K53A C38A K53A): as the sequence (Q14116 37-193) above, with E6K, C38A, K53A counted along it
Sequence of IL-18 variant SEQ ID NO: 5 (E6K, V11I, C38A, K53A, T63A, C68A, C76A, M86C, C127A) (human) (Q14116 other isoform, or with tags, fused parts or gaps with the stated changes): as the sequence (Q14116 37-193) above, with E6K, V11I, C38A, K53A, T63A, C68A, C76A, M86C, C127A counted along it
Sequence of IL-18 variant SEQ ID NO: 5 with 30 kDa PEG (E6K, V11I, C38A, K53A, T63A, C68A, C76A, C127A, M86C-30kPEG) (human) (Q14116 other isoform, or with tags, fused parts or gaps with the stated changes): as the sequence (Q14116 37-193) above, with E6K, V11I, C38A, K53A, T63A, C68A, C76A, M86C, C127A counted along it
Sequence of IL-18 variant SEQ ID NO: 217 (V11I, C38A, N41A, K53A, C76A, C127A) (human) (Q14116 37-193 V47I/C74A/N77A/K89A/C112A/C163A): as the sequence (Q14116 37-193) above, with V11I, C38A, N41A, K53A, C76A, C127A counted along it

IC50 (read off the curve); IFNγ production in the NK-92 assay (IFNg, ng/mL) [1]: 1 nM | IC50 (read off the curve); IFNγ secretion by NK-92 cells (IFNg AlphaLISA signal, 615 nM) [2]: 200 nM | IC50 (read off the curve); IFNγ secretion by NK-92 cells (IFNg AlphaLISA signal, 615 nM) [3]: 0.9 nM | IC50 of IL-18BPa-Fc on IFNγ secretion, NK-92 [4]: 233 nM | IC50 of IL-18BPa-Fc on IFNγ secretion, NK-92 [5]: 358 nM | IC50 of IL-18BPa-Fc on IFNγ secretion, NK-92 [6]: 1.62 nM | IC50 of IL-18BPa-Fc on IFNγ secretion, NK-92 [7]: 6.08 nM | IC50 of IL-18BPa-Fc on IFNγ secretion, NK-92 [8]: 3.62 nM | IC50 of IL-18BPa-Fc on IFNγ secretion, NK-92 [9]: 35.5 nM | IC50 of IL-18BPa-Fc on IFNγ secretion, NK-92 [10]: 779 nM | IC50 of IL-18BPa-Fc on IFNγ secretion, NK-92 [11]: 0.809 nM | IC50 of IL-18BPa-Fc on IFNγ secretion, NK-92 [12]: 34.3 nM | IC50 of IL-18BPa-Fc on IFNγ secretion, NK-92 [13]: 32.5 nM | IC50 of IL-18BPa-Fc on IFNγ secretion, NK-92 [14]: 21.3 nM | IC50 of IL-18BPa-Fc on IFNγ secretion, NK-92 [15]: 0.885 nM | IC50 of IL-18BPa-Fc on IFNγ secretion, NK-92 [16]: 41.8 nM | IC50 of IL-18BPa-Fc on IFNγ secretion, NK-92 [17]: 0.176 nM | IC50 of IL-18BPa-Fc on IFNγ secretion, NK-92 [18]: 236 nM | IC50 of IL-18BPa-Fc on IFNγ secretion, NK-92 [19]: 11.4 nM | IC50 of IL-18BPa-Fc on IFNγ secretion, NK-92 [20]: 532 nM | IC50 of IL-18BPa-Fc on IFNγ secretion, NK-92 [21]: 0.823 nM | IC50 of IL-18BPa-Fc on IFNγ secretion, NK-92 [22]: 3.18 nM | IC50 of IL-18BPa-Fc on IFNγ secretion, NK-92 [23]: 1.81 nM | IC50 of IL-18BPa-Fc on IFNγ secretion, NK-92 [24]: 3.23 nM | IC50 of IL-18BPa-Fc on IFNγ secretion, NK-92 [25]: 0.456 nM | IC50 of IL-18BPa-Fc on IFNγ secretion, NK-92 [26]: 28.1 nM | IC50 of IL-18BPa-Fc on IFNγ secretion, NK-92 [27]: 0.681 nM | IC50 of IL-18BPa-Fc on IFNγ secretion, NK-92 [28]: 12.2 nM | IC50 of IL-18BPa-Fc on IFNγ secretion, NK-92 [29]: 44.2 nM
Substance: Fc fused human IL-18BP isoform a (IL-18BPa) (from UniProt O95998 31-194) (Fc fusion)
